Assay results: article doi:10.1101/2023.10.09.561567 (bioRxiv, 2023)

How the values were obtained:
[1] = molecular target: IL-33 released from CMT-64 cells (mouse (endogenous in CMT-64)) (UniProt Q8BVZ5); assay: ELISA
[2] = molecular target: HpARI1 (Heligmosomoides polygyrus bakeri); assay: SPR
[3] = molecular target: HpARI2 (Heligmosomoides polygyrus bakeri); assay: SPR
[4] = molecular target: HpARI3 (Heligmosomoides polygyrus bakeri); assay: SPR
[5] = molecular target: T1, IL-33 released from CMT-64 cells (mouse (endogenous in CMT-64), UniProt Q8BVZ5 1-266); assay: ELISA
T1 sequence (looked up): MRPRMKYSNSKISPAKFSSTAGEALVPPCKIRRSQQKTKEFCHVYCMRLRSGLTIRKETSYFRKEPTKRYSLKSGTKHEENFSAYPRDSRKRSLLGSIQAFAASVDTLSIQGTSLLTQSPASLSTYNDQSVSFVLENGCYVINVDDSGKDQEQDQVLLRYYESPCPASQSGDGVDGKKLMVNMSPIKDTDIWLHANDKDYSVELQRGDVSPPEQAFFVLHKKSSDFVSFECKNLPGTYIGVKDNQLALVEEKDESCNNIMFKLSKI

HpARI2 (natural protein) was tested, and the IC50 [1] was 0.8 nM.

With “mouse IL-33 (purified) (from UniProt Q8BVZ5 1-266) (ligand)” the Kd [2] was 0.04 nM, the Kd [3] was 0.04 nM and the Kd [4] was 0.4 nM.

HpARI1 (natural protein) gave an IC50 [1] of 0.8 nM.

B1: HpARI3 (natural protein, Heligmosomoides polygyrus bakeri, UniProt A0A183GRJ4 1-248, looked up)
chain: SLGCKFTDVEKDKGYTGMLVGGKRRESAANGQKVELVCGRGNHNYTCKSGILTEESYRQGRCGCEGILQMLLDKPKDSPMYDSVTYDPTPNTPTTVGKDGIWNGVDYRNGSTVRPYCDTGPIINGSPKAVCVSGKWVPKLGDCPKMCSISSLKENGKFLNVTATTTGDELNPRPREQTLIPIVRKVDKDKVQHGVKVVALCKAKYSTTAAENVQKFECDNGKWKPKPVPCS
modifications: chemically biotinylated with EZ-Link Sulfo-NHS-Biotin (for SPR only)
B1 gave an IC50 [5] of ~6 nM.
